Laboratory results as given in publication PMC3819287.

Target: J17 (pH-sensitive anti-PCSK9 mAb, variant of J16) engineered pH-sensitive variant of J16; substitutions not stated in this article (see ref 9)
Assay: KinExA (kinetic exclusion assay), multi-curve global analysis
Settings: pH 7.4; room temperature (approximately 23 C); 154 mM NaCl; PBS pH 7.4 (1 mM KH2PO4, 5.6 mM Na2HPO4, 154 mM NaCl)

Substance “rhPCSK9 (recombinant human proprotein convertase subtilisin/kexin type 9)” has a KD of 0.064 nM.
